Measurements from patent US20240247080A1, “GLP1/GIP/NPY2 RECEPTOR TRIPLE AGONISTS” (Boehringer Ingelheim International GmbH, priority 2022, published 2024).
Starred links: 1 amine or outer side, 2 acyl side, 3 side chain; linkers in the order of their positions; H or OH if unused. Non-standard residues stand in square brackets, D forms with d. Groups on a side chain read outwards from the residue. No end group written: not given here. *: point of attachment. C20 diacid = O=C(O)CCCCCCCCCCCCCCCCCCC(=O)*; γGlu = O=C(O)[C@H](CCC(=O)[*:2])N[*:1]; εLys = N[C@@H](CCCCN[*:1])C(=O)[*:2]; Aib = CC(C)(N)C(=O)O

T1: human neuropeptide Y2 (NPY2) receptor (human, UniProt P49146 1-381)
T1 sequence (looked up): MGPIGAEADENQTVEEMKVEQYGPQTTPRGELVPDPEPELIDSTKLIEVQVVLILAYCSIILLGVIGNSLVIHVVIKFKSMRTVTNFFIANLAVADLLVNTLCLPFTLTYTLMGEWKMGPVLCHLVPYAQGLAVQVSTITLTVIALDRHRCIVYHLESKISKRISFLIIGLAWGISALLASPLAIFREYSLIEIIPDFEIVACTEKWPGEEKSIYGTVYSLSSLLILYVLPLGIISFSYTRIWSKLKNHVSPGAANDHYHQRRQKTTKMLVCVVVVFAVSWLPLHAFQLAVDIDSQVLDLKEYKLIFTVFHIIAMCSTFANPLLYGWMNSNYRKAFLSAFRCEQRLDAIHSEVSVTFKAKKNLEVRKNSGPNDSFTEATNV

T2: human GIP receptor (human, UniProt P48546 22-466)
T2 sequence (looked up): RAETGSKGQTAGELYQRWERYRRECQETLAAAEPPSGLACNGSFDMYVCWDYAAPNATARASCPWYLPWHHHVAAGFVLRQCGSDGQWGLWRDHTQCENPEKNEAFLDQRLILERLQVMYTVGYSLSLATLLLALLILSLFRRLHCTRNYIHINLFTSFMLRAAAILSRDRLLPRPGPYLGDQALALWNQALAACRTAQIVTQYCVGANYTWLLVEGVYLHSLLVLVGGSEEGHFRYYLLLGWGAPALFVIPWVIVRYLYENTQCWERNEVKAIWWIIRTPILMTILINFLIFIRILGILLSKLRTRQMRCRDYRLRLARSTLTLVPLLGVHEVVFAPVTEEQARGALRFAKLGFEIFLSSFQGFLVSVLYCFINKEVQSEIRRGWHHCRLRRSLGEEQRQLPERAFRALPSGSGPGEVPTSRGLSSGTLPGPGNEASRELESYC

B1: Compound 23 (peptide)
peptide: Y[Aib]EGTFTSDYSI[Aib]LEKQAQ[Aib]AFVQWLIK([εLys-Glu-γGlu-γGlu-γGlu-γGlu-C20 diacid])GGPEYYASLRHYYNWLTRQRY-NH2
modifications: also: TFA salt
B2: Compound 42 (peptide)
peptide: YXEGTFTSDYSIXLEKQAQXAFVEWLIKGGPSEYVSIRHYYNWLTRQRY
modifications: Aib at 2, 13, 20; K28 side chain: C20DA-gGlu-gGlu-gGlu-gGlu-gGlu-gGlu-eLys; C-terminal NH2
B3: Compound 24 (peptide)
peptide: YXEGTFTSDYSIXLEXKAQXEFVEWLIKGGPSSGASLRHYYNWLTRQRY
modifications: Aib at 2, 13, 16, 20; K28 side chain: C20DA-gGlu-gGlu-gGlu-gGlu-gGlu-gGlu-eLys; C-terminal NH2
B4: Compound 38 (peptide)
peptide: YXEGTFTSDYSIXLEKQAQXAFVEWLIKGGPSSGVSXRHYYNWLTRQRY
modifications: Aib at 2, 13, 20, 37; K28 side chain: C20DA-gGlu-gGlu-gGlu-gGlu-gGlu-gGlu-eLys; C-terminal NH2
B5: Compound 41 (peptide)
peptide: YXEGTFTSDYSIXLEKQAQXAFVEWLIKGGPSSPQSLRHYYNWLTRQRY
modifications: Aib at 2, 13, 20; K28 side chain: C20DA-gGlu-gGlu-gGlu-gGlu-gGlu-gGlu-eLys; C-terminal NH2
B6: Compound 5 (peptide)
peptide: YXEGTFTSDYSIXLEKQAQXAFVEWLIKGGPSSGASLRHYYNWLTRQRY
modifications: Aib at 2, 13, 20; DLeu 37; DHis 39; DArg 46; DTyr 49; K28 side chain: C20DA-gGlu-gGlu-gGlu-gGlu-gGlu-gGlu-eLys; C-terminal NH2
B7: Compound 26 (peptide)
peptide: YXEGTFTSDYSIXLEKQAQXAFVEWLIKGGPSSGASXRHYYNWLTXQRY
modifications: Aib at 2, 13, 20, 37; hArg 46; DTyr 49; K28 side chain: C20DA-gGlu-gGlu-gGlu-gGlu-gGlu-gGlu-eLys; C-terminal NH2
B8: Compound 35 (peptide)
peptide: YXEGTFTSDYSIXLEKQAQXAFVQWLIKGGPSSGESLRHYYNWLTRQRY
modifications: Aib at 2, 13, 20; K28 side chain: C20DA-gGlu-gGlu-gGlu-gGlu-gGlu-gGlu-eK; C-terminal NH2
B9: Compound 30 (peptide)
peptide: YXEGTFTSDYSIXLEEQAQXAFVQWLIKGGPSSGASLRHYYNWLTRQRY
modifications: Aib at 2, 13, 20; K28 side chain: C20DA-gGlu-gGlu-Glu-gGlu-gGlu-gGlu-eLys; C-terminal NH2
B10: Compound 39 (peptide)
peptide: YXEGTFTSDYSIXLEKQAQXAFVEWLIKGGPSSGASXRHYYNWLTRQRY
modifications: Aib at 2, 13, 20, 37; NMeR 48; K28 side chain: C20DA-gGlu-gGlu-gGlu-gGlu-gGlu-gGlu-eLys; C-terminal NH2
B11: Compound 31 (peptide)
peptide: YXEGTFTSDYSIXLEEQAQXAFVEWLIKGGPSSGQSLRHYYNWLTRQRY
modifications: Aib at 2, 13, 20; K28 side chain: C20DA-gGlu-gGlu-gGlu-gGlu-gGlu-gGlu-eLys; C-terminal NH2
B12: Compound 29 (peptide)
peptide: YXEGTFTSDYSIXLEKQAQXAFVQWLIKGGPESGASLRHYYNWLTRQRY
modifications: Aib at 2, 13, 20; K28 side chain: C20DA-gGlu-gGlu-gGlu-gGlu-gGlu; C-terminal NH2
B13: Compound 36 (peptide)
peptide: YXEGTFTSDYSIXLEKQAQXEFVQWLIKGGPSSGASLRHYYNWLTRQRY
modifications: Aib at 2, 13, 20; K28 side chain: C20DA-gGlu-gGlu-gGlu-gGlu-gGlu-OEG-OEG; C-terminal NH2
B14: Compound 27 (peptide)
peptide: YXEGTFTSDYSIXLEKQAQXAFVEWLIKGGPSSGVSIRHYYNWLTRQRY
modifications: Aib at 2, 13, 20; K28 side chain: C20DA-gGlu-gGlu-gGlu-gGlu-gGlu-gGlu-eLys; C-terminal NH2
B15: Compound 37 (peptide)
peptide: YXEGTFTSDYSIXLEKQAQXAFVQWLIKGGPESGASLRHYYNWLTRQRY
modifications: Aib at 2, 13, 20; K28 side chain: C20DA-gGlu-gGlu-gGlu-gGlu-gGlu-gGlu-eLys; C-terminal NH2
B16: Compound 40 (peptide)
peptide: YXEGTFTSDYSIXLEKQAQXAFVEWLIKGGPSSYVSLRHYYNWLTRQRY
modifications: Aib at 2, 13, 20; K28 side chain: C20DA-gGlu-gGlu-gGlu-gGlu-gGlu-gGlu-eLys; C-terminal NH2
B17: Compound 33 (peptide)
peptide: YXEGTFTSDYSIXLEKQAQXAFVEWLIKGGPSSAVSLRHYYNWLTRQRY
modifications: Aib at 2, 13, 20; K28 side chain: C20DA-gGlu-gGlu-gGlu-gGlu-gGlu-gGlu-eLys; C-terminal NH2
B18: Compound 32 (peptide)
peptide: YXEGTFTSDYSIXLEKQAQXAFVQWLIKGGPESGASLRHYYNWLTRQRY
modifications: Aib at 2, 13, 20; K28 side chain: C20DA-gGlu-gGlu-gGlu-gGlu-gGlu-OEG-OEG; C-terminal NH2
B19: Compound 25 (peptide)
peptide: YXEGTFTSDYSIXLEAAKQXAFVEWLIKGGPSSGASLRHYYNWLTRQRY
modifications: Aib at 2, 13, 20; K28 side chain: C20DA-gGlu-gGlu-gGlu-gGlu-gGlu-gGlu-eLys; C-terminal NH2
B20: Compound 4 (peptide)
peptide: YXEGTFTSDYSIXLEKQAQXAFVEWLIKGGPSSGASXRHYXNRXTRQRY
modifications: Aib at 2, 13, 20, 37, 41, 44; K28 side chain: C20DA-gGlu-gGlu-gGlu-gGlu-gGlu-gGlu-eLys; C-terminal NH2
B21: Compound 34 (peptide)
peptide: Y[Aib]EGTFTSDYSI[Aib]LEEQAQ[Aib]AFVQWLIK([εLys-γGlu-γGlu-γGlu-γGlu-γGlu-C20 diacid])GGPSSGASLRHYYNWLTRQRY-NH2
modifications: also: TFA salt
B22: Compound 28 (peptide)
peptide: Y[Aib]EGTFTSDYSI[Aib]LEKQAQ[Aib]EFVQWLIKGGPSSGASLRHYYNWLTRQRY-NH2
modifications: not fully specified (residue 28); also: TFA salt

Columns and labels:
Assay in all cases: cell-based or functional assay
[1] = target: T1, human neuropeptide Y2 (NPY2) receptor
human GIP receptor = target: T2, human GIP receptor
human GLP-1 receptor = human GLP-1 receptor (human, UniProt P43220 24-463)

Binder	EC50, CreLuc assay, 0.5% hP [1]	EC50, CreLuc assay, 100% hP [1]	EC50, CreLuc assay, 0.5% hP (human GIP receptor)	EC50, CreLuc assay, 100% hP (human GIP receptor)	EC50, CreLuc assay, 0.5% hP (human GLP-1 receptor)	EC50, CreLuc assay, 100% hP (human GLP-1 receptor)
B1	10.1 nM	72.4 nM	0.56 nM	11.4 nM	0.47 nM	37.7 nM
B2	8.82 nM	19.1 nM	0.15 nM	1.34 nM	0.36 nM	7.15 nM
B3	26.8 nM	94.5 nM	4.1 nM	17.7 nM	1.77 nM	15.3 nM
B4	6.9 nM	17.8 nM	0.04 nM	0.7 nM	0.06 nM	1.28 nM
B5	10.2 nM	34.6 nM	0.07 nM	0.62 nM	0.06 nM	1.47 nM
B6	> 99.9 nM	> 999 nM	0.17 nM	1.07 nM	0.11 nM	1.43 nM
B7	> 100 nM	670 nM	0.09 nM	0.7 nM	0.07 nM	1.18 nM
B8	11.6 nM	29.3 nM	0.06 nM	0.96 nM	0.07 nM	1.3 nM
B9	13.3 nM	56.2 nM	0.13 nM	1.06 nM	0.08 nM	1.08 nM
B10	26.9 nM	61.5 nM	0.06 nM	0.4 nM	0.09 nM	0.82 nM
B11	13.4 nM	43.5 nM	0.15 nM	2.63 nM	0.06 nM	2.94 nM
B12	8.79 nM	74.5 nM	0.23 nM	4.08 nM	0.13 nM	6.74 nM
B13	8.03 nM	26.8 nM	0.26 nM	1.57 nM	0.28 nM	7.78 nM
B14	7.16 nM	21 nM	0.17 nM	1.11 nM	0.1 nM	1.97 nM
B15	9.53 nM	35.5 nM	0.24 nM	1.44 nM	0.11 nM	5.13 nM
B16	11.9 nM	26.4 nM	0.48 nM	4.36 nM	0.46 nM	9.04 nM
B17	9.93 nM	26.7 nM	0.25 nM	1.51 nM	0.14 nM	3.17 nM
B18	12.2 nM	49.3 nM	0.16 nM	1.15 nM	0.07 nM	4.74 nM
B19	13 nM	38.3 nM	0.98 nM	6.97 nM	0.67 nM	14.2 nM
B20	66.4 nM	182 nM	0.25 nM	1.66 nM	0.09 nM	1.74 nM
B21	14.6 nM	66.7 nM	0.13 nM	1.61 nM	0.09 nM	1.39 nM
B22	10.3 nM	46 nM	0.38 nM	3.08 nM	0.22 nM	6.51 nM
